Test results as given in PMC4216083.

Molecular target: Toll-like receptor 4 (human (endogenous in monocyte-derived DCs)) (UniProt O00206)
Sequence of UniProt O00206 (O00206 24-839): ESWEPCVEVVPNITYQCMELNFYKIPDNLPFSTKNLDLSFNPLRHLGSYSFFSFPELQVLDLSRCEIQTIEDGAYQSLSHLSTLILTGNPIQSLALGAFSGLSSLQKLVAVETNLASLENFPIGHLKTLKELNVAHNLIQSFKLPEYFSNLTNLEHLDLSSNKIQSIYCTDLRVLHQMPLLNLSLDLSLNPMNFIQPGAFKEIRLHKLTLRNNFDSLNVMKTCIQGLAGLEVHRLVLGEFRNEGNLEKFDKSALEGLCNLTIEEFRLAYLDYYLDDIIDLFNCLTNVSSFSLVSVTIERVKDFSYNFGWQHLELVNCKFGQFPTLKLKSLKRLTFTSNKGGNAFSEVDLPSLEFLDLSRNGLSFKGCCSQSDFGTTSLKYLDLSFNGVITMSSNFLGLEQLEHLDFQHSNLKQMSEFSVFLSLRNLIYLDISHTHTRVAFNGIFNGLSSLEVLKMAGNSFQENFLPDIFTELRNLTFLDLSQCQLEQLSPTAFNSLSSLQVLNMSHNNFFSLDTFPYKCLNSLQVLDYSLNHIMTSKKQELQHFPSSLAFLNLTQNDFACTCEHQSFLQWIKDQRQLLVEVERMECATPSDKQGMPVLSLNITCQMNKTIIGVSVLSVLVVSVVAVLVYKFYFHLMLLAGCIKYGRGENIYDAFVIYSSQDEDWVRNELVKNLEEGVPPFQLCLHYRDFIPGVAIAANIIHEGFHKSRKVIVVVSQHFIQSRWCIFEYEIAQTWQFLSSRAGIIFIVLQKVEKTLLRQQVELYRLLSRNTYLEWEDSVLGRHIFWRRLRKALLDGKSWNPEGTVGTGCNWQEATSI

Enterovirus 71 virus-like particles (complex)
decrease of EV71 VLP (10 µg/mL)-induced IL-10 production by human DCs after pre-incubation with anti-TLR4 mAb (HTA125, 20 µg/mL), ELISA: 41%
decrease of EV71 VLP (10 µg/mL)-induced IL-12 p40 production by human DCs after pre-incubation with anti-TLR4 mAb (HTA125, 20 µg/mL), ELISA: 48%
decrease of EV71 VLP (10 µg/mL)-induced IL-12 p70 production by human DCs after pre-incubation with anti-TLR4 mAb (HTA125, 20 µg/mL), ELISA: 68%
